Target: Zea mays pullulanase1 (ZPU1), from residue 80, GAL4 fusion (maize (Zea mays L.)) (UniProt O81638)

## maize isoamylase1 (ISA1), mature protein from residue 50, GAL4 fusion (from UniProt O22637 50-789) (enzyme)
  Red Pullulan hydrolysis (ZPU1 activity) in total soluble extracts of yeast strain 830 (ISA1 and ZPU1) compared with strain 808 (ZPU1 alone): 1.7 fold

Source: article PMC12516185
